The text below walks through data of paper PMC3869713.

Data set [1] has as its target CHK2 (UniProt O96017). The experiment in a line: fluorescence polarization. Conditions: 25 mM Tris-HCl pH 8.0, 10 mM NaCl, 25 mM KCl, 5 mM MgCl2, 0.01% IGEPAL CA630, 10 ug/ml yeast tRNA, SUPERase-In; 2 nM RNA, room temperature 2 h; F-EMSA on …. For orientation: In fluorescence polarisation assays a small probe gives low polarisation when free and higher when bound to something large.

For data set [2], the target named is CHK2 (UniProt O96017). The experiment in a line: F-EMSA. Conditions: 25 mM Tris-HCl pH 8.0, 10 mM NaCl, 25 mM KCl, 5 mM MgCl2, 0.01% IGEPAL CA630, 10 ug/ml yeast tRNA, SUPERase-In; 2 nM RNA, room temperature 2 h; F-EMSA on …. Background: A gel shift assay detects complexes by their altered migration in electrophoresis.
Chain of CHK2 (O96017 whole entry): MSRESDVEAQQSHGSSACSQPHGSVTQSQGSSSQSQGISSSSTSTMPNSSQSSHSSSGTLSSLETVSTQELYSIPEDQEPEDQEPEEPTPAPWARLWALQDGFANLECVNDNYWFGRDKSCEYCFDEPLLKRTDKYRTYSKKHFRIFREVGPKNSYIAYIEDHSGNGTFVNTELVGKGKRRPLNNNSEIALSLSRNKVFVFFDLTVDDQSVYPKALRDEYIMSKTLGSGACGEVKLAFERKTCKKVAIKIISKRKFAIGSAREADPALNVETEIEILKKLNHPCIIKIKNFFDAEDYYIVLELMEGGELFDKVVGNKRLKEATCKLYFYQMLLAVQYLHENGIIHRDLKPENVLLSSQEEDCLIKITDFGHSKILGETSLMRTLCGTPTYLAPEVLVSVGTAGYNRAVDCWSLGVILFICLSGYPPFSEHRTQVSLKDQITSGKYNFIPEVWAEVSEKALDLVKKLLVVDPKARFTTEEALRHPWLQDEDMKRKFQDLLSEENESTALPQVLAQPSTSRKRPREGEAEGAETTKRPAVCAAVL

In general, Kd refers to a measure of binding affinity in units of concentration. “GGGAAUGGAUCCACAUCUACGAAUUCGAUCGGUUCCAACGCUCUGUCGCCUAAGUGAACAGAUGAAGAAAAAAUAGCCCAAUAAGAGGCAACAAUCUUUCACUGCAGACUUGACGAAGCUU [C6M1]”: the equilibrium dissociation constant (Kd) is 299 nM with CHK2 [1] and 180 nM in the data set with CHK2 [2].
